Data set [1] deals with the molecule itself. Nature of the data set: SEC; reduced samples: 30 uM protein treated with 5 mM TCEP, excess removed by PD10; Phenomenex BioSep-SEC-S2000, 100 mM Tris-HCl pH 7.4, 1 mL/min, absorbance at 280 nm; self-association (decamer, dimer). (In general: Size exclusion chromatography separates by hydrodynamic size, large species first.)
Data set [2] deals with the molecule itself. The data set is described as follows: SEC; oxidized samples (disulfide): reduced 30 uM protein treated with 36 uM H2O2 for 30 min at room temperature; Phenomenex BioSep-SEC-S2000, 100 mM Tris-HCl pH 7.4, 1 mL/min, absorbance at 280 nm; self-association (decamer, dimer).

B1: AhpC from Pseudomonas aeruginosa (enzyme, UniProt Q9I6Z3 1-187, looked up)
chain: MSLINTQVQPFKVNAFHNGKFIEVTEESLKGKWSVLIFMPAAFTFNCPTEIEDAANNYGEFQKAGAEVYIVTTDTHFSHKVWHETSPAVGKAQFPLIGDPTHQLTNAFGVHIPEEGLALRGTFVINPEGVIKTVEIHSNEIARDVGETVRKLKAAQYTAAHPGEVCPAKWKEGEKTLAPSLDLVGKI
notes: The forward primer carries the ATG of the Nde I site followed by the gene's own ATG, so one more Met may precede the natural start; The strain that was amplified (ATCC29853) is not the strain of the genome used for the primers; also called PaAhpC; ahpc (Pa); source: E. coli BL21 (DE3), pET15b, purified (IMAC HisTrap, PD10 desalting)
By stoichiometry N is commonly meant a count of units in the complex or per binding partner. As for B1, the “stoichiometry N” value turned out to be 10 in data set [1] and 2 in data set [2].

B2: PaAhpC^T44S (enzyme)
chain: MSLINTQVQPFKVNAFHNGKFIEVTEESLKGKWSVLIFMPAAFSFNCPTEIEDAANNYGEFQKAGAEVYIVTTDTHFSHKVWHETSPAVGKAQFPLIGDPTHQLTNAFGVHIPEEGLALRGTFVINPEGVIKTVEIHSNEIARDVGETVRKLKAAQYTAAHPGEVCPAKWKEGEKTLAPSLDLVGKI
notes: AhpC of Pseudomonas aeruginosa with the catalytic triad Thr changed to Ser; printed as T44S in the SEC text and legend and as T43S in the primers' names and other legends (one mutant; mutagenic primer encodes AAFSFNC); Made by site directed mutagenesis (Quick Change II) of the pET15b-ahpc (Pa) plasmid; also called PaAhpC^T43S; source: E. coli BL21 (DE3), pET15b, purified (IMAC HisTrap, …)
B2: the “stoichiometry N” value in data set [1] was 10.
